Experiments:
PP2Ac = assay: Summary of detection properties of C-terminal PP2Ac antibodies (Table 4), PP2Ac; type: binding
Description: (§1) Examples of antibodies with a preference for non-methylated PP2Ac are mouse monoclonal antibody 4B7 (Yu (2001), Mol Biol Cell 12, 185-199), mouse monoclonal antibody 1D7 generated by the Ogris lab but also the rabbit monoclonal E155 antibody from Abeam and the mouse monoclonal F-8 from SCBT that were thought to be specific for pTyr^307.
E155 was tested for its specificity to phosphorylation and methylation on the carboxy-terminus of PP2A on 6 different undecapeptides by ELISA (FIGS. 18 and 19). Flat-bottom Nunc-Immuno Medisorp 96-well ELISA plates (Thermo; 467320) were coated o/n at 4° C. with 50 μl of either a peptide of the sequence ac-HVTRRTPDYFL-OH (L309) (SEQ ID NO:18) at a concentration of 2 μg/ml, a peptide of the sequence ac-HVTRRTPDYFL-CH3 (meL309) (SEQ ID NO:18) at a concentration of 2 μg/ml in TBS (137 mM NaCl (AppliChem, #131659, 2.7 mM KCl (AppliChem, #131494.), 24.8 mM Tris (AppliChem, #A1086), pH 7.4 with HCl), with a peptide of the sequence ac-HVTRRpTPDYFL-OH (pT304-L309) (SEQ ID NO:116) at a concentration of 2 μg/ml in TBS, or with a peptide of the sequence ac-HVTRRpTPDYFL-CH3 (pT304-meL309) (SEQ ID NO:116) at a concentration of 2 μg/ml in TBS (FIG. 18). The wells were washed once with TBS, blocked with 200 μl of 2% bovine serum albumin (BSA) (Sigma, A9647) in TBS for 1 hour at RT and washed again once with TBS. […] Bound antibodies were detected colorimetrically by addition of 50 μl of 33 μg/ml […] (TMB) (Sigma, T2885) in 0.1 M sodium acetate pH 6.0 and 0.01% H2O2 (Sigma, H1009). The colorimetric reaction was stopped after 10 min by addition of 50 μl 0.5 M H2SO4, and absorbance was measured at 450 nm and 560 nm with a Perkin Elmer VICTOR® Nivo™ microplate reader. The results from 560 nm read were subtracted from the 450 nm read.
In a further experiment, flat-bottom Nunc-Immuno Medisorp 96-well ELISA plates (Thermo; 467320) were coated o/n at 4° C. with 50 μl of either a peptide of the sequence ac-HVTRRTPDYFL-OH (L309) (SEQ ID NO:18) at a concentration of 2 μg/ml in TBS (137 mM NaCl (AppliChem, #131659, 2.7 mM KCl (AppliChem, #131494.), 24.8 mM Tris (AppliChem, #A1086), pH 7.4 with HCl), a peptide of the sequence ac-HVTRRTPDYFL-CH3 (meL309) (SEQ ID NO:18) at a concentration of 2 μg/ml in TBS (137 mM NaCl (AppliChem, #131659.1214, 2.7 mM KCl (AppliChem, #131494.1211) pH 7.4 with HCl), with a peptide of the sequence ac-HVTRRTPDpYFL-OH (pY307-L309) (SEQ ID NO:117) at a concentration of 2 μg/ml in TBS or with a peptide of the sequence ac-HVTRRTPDpYFL-CH3 (pY307-meL309) (SEQ ID NO:117) at a concentration of 2 μg/ml in TBS (FIG. 19). […] The colorimetric reaction was stopped after 10 min by addition of 50 μl 0.5 M H2SO4, and absorbance was measured at 450 nm and 570 nm with a Biotek Synergy™ H1 microplate reader. […]

PP4 = assay: Summary of cross-reactivities of C-terminal PP2Ac antibodies (Table 4), PP4; settings: antibodies screened for binding methylated PP2Ac
From the text: as §1

[1] = antibodies screened for binding methylated PP2Ac

B1: 7C10-C5: α-carboxymethylation specific mouse monoclonal IgG1 antibody from single clone hybridoma 7C10-C5 (DSM ACC3350) (antibody)
heavy: MYRMQLLSCIALSLALVTNSDVQLQESGPGLVKPSQSLSLTCSVTGYSITSGYYWNWIRQFPGNKLEWMGYISYDGSNNYNPSLKNRISITRDTSKNQFFLKLNSVTTEDTATYYCAGRFAYWGQGTLVTVSAAKTTAPSVYPLAPVCGDTTGSSVTLGCLVKGYFPEPVTLTWNSGSLSSGVHTFPAVLQSDLYTLSSSVTVTSSTWPSQSITCNVAHPASSTKVDKKIEPRGPTIKPCPPCKCPAPNLLGGPSVFIFPPKIKDVLMISLSPIVTCVVVDVSEDDPDVQISWFVNNVEVHTAQTQTHREDYNSTLRVVSALPIQHQDWMSGKEFKCKVNNKDLPAPIERTISKPKGSVRAPQVYVLPPPEEEMTKKQVTLTCMVTDFMPEDIYVEWTNNGKTELNYKNTEPVLDSDGSYFMYSKLRVEKKNWVERNSYSCSVVHEGLHNHHTTKSFSRTPGK
light: MDMRVPAQLLGLLLLWLSGARCDVLMTQTPLSLPVSLGDQASISCRSSQSIVHSNGNTYLEWYLQKPGQSPKLLIYKVSNRFSGVPDRFSGSGSGTDFTLKINRVEAEDLGVYYCFQGSHVPWTFGGGTKLEIKADAAPTVSIFPPSSEQLTSGGASVVCFLNNFYPKDINVKWKIDGSERQNGVLNSWTDQDSKDSTYSMSSTLTLTKDEYERHNSYTCEATHKTSTSPIVKSFNRNEC
modifications: Amino acid sequence of the recombinant 7C10-C5 heavy chain; Amino acid sequence of the recombinant 7C10-C5 light chain
meLeu^309 (PP2Ac; PP2Ac carboxymethylated at Leu309): *** (*** 80-100%)
pThr^304 meLeu^309 (PP2Ac; [1]): **** (**** >100%)
pTyr^307 meLeu^309 (PP2Ac; [1]): *** (*** 80-100%)
unmodified (PP2Ac; unmodified PP2Ac C-terminus): — (— <15%)
PP4 meLeu^307 (PP4): — (— <15%)

Reference: patent publication US20230121197A1, “ANTIBODIES SPECIFICALLY BINDING THE CARBOXYMETHYLATED CATALYTIC SUBUNIT OF PROTEIN PHOSPHATASE 2A” (Medizinische Universität Wien, priority 2020, published 2023)
